Reference: PMC3702553 (2013)

B1: full length wild-type GST-SNX9 (sorting nexin 9) [not stated] / clathrin heavy chain (CHC) [human (endogenous in HeLa)] (parent complex)
chain 1: MATKARVMYDFAAEPGNNELTVNEGEIITITNPDVGGGWLEGRNIKGERGLVPTDYVEILPSDGKDQFSCGNSVADQAFLDSLSASTAQASSSAASNNHQVGSGNDPWSAWSASKSGNWESSEGWGAQPEGAGAQRNTNTPNNWDTAFGHPQAYQGPATGDDDDWDEDWDGPKSSSYFKDSESADAGGAQRGNSRASSSSMKIPLNKFPGFAKPGTEQYLLAKQLAKPKEKIPIIVGDYGPMWVYPTSTFDCVVADPRKGSKMYGLKSYIEYQLTPTNTNRSVNHRYKHFDWLYERLLVKFGSAIPIPSLPDKQVTGRFEEEFIKMRMERLQAWMTRMCRHPVISESEVFQQFLNFRDEKEWKTGKRKAERDELAGVMIFSTMEPEAPDLDLVEIEQKCEAVGKFTKAMDDGVKELLTVGQEHWKRCTGPLPKEYQKIGKALQSLATVFSSSGYQGETDLNDAITEAGKTYEEIASLVAEQPKKDLHFLMECNHEYKGFLGCFPDIIGTHKGAIEKVKESDKLVATSKITLQDKQNMVKRVSIMSYALQAEMNHFHSNRIYDYNSVIRLYLEQQVQFYETIAEKLRQALSRFPVM
chain 2: MAQILPIRFQEHLQLQNLGINPANIGFSTLTMESDKFICIREKVGEQAQVVIIDMNDPSNPIRRPISADSAIMNPASKVIALKAGKTLQIFNIEMKSKMKAHTMTDDVTFWKWISLNTVALVTDNAVYHWSMEGESQPVKMFDRHSSLAGCQIINYRTDAKQKWLLLTGISAQQNRVVGAMQLYSVDRKVSQPIEGHAASFAQFKMEGNAEESTLFCFAVRGQAGGKLHIIEVGTPPTGNQPFPKKAVDVFFPPEAQNDFPVAMQISEKHDVVFLITKYGYIHLYDLETGTCIYMNRISGETIFVTAPHEATAGIIGVNRKGQVLSVCVEEENIIPYITNVLQNPDLALRMAVRNNLAGAEELFARKFNALFAQGNYSEAAKVAANAPKGILRTPDTIRRFQSVPAQPGQTSPLLQYFGILLDQGQLNKYESLELCRPVLQQGRKQLLEKWLKEDKLECSEELGDLVKSVDPTLALSVYLRANVPNKVIQCFAETGQVQKIVLYAKKVGYTPDWIFLLRNVMRISPDQGQQFAQMLVQDEEPLADITQIVDVFMEYNLIQQCTAFLLDALKNNRPSEGPLQTRLLEMNLMHAPQVADAILGNQMFTHYDRAHIAQLCEKAGLLQRALEHFTDLYDIKRAVVHTHLLNPEWLVNYFGSLSVEDSLECLRAMLSANIRQNLQICVQVASKYHEQLSTQSLIELFESFKSFEGLFYFLGSIVNFSQDPDVHFKYIQAACKTGQIKEVERICRESNCYDPERVKNFLKEAKLTDQLPLIIVCDRFDFVHDLVLYLYRNNLQKYIEIYVQKVNPSRLPVVIGGLLDVDCSEDVIKNLILVVRGQFSTDELVAEVEKRNRLKLLLPWLEARIHEGCEEPATHNALAKIYIDSNNNPERFLRENPYYDSRVVGKYCEKRDPHLACVAYERGQCDLELINVCNENSLFKSLSRYLVRRKDPELWGSVLLESNPYRRPLIDQVVQTALSETQDPEEVSVTVKAFMTADLPNELIELLEKIVLDNSVFSEHRNLQNLLILTAIKADRTRVMEYINRLDNYDAPDIANIAISNELFEEAFAIFRKFDVNTSAVQVLIEHIGNLDRAYEFAERCNEPAVWSQLAKAQLQKGMVKEAIDSYIKADDPSSYMEVVQAANTSGNWEELVKYLQMARKKARESYVETELIFALAKTNRLAELEEFINGPNNAHIQQVGDRCYDEKMYDAAKLLYNNVSNFGRLASTLVHLGEYQAAVDGARKANSTRTWKEVCFACVDGKEFRLAQMCGLHIVVHADELEELINYYQDRGYFEELITMLEAALGLERAHMGMFTELAILYSKFKPQKMREHLELFWSRVNIPKVLRAAEQAHLWAELVFLYDKYEEYDNAIITMMNHPTDAWKEGQFKDIITKVANVELYYRAIQFYLEFKPLLLNDLLMVLSPRLDHTRAVNYFSKVKQLPLVKPYLRSVQNHNNKSVNESLNNLFITEEDYQALRTSIDAYDNFDNISLAQRLEKHELIEFRRIAAYLFKGNNRWKQSVELCKKDSLYKDAMQYASESKDTELAEELLQWFLQEEKRECFGACLFTCYDLLRPDVVLETAWRHNIMDFAMPYFIQVMKEYLTKVDKLDASESLRKEEEQATETQPIVYGQPQLMLTAGPSVAVPPQAPFGYGYTAPPYGQPQPGFGYSM

Variants of: B1
Test: GST pull-down, densitometry of immunoblots; lysates from asynchronously growing HeLa cells; 3-4 independent experiments; parent: 1; read off a plot

First: chain 1 W165S, chain 1 W169S
Second: chain 1 W108S, chain 1 W111S
The ratio to parent of the first is higher: roughly 0.29 for the first, roughly 0.06 for the second.

Going from chain 1 W108S to chain 1 W165S, the ratio to parent falls from roughly 0.44 to roughly 0.05.
